Here are results for 94 variants from the supplement of paper PMC10567573.

First the molecules themselves.
B1: BEX1 (parent)
chain: EENMERIGEEVRQLMEKLREKQLS
B2: TMEM106C (parent)
chain: TVPEILVHNIVIFMRTSVKISYIG
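Further: lentivirally expressed fusions sorted by FACS into six bins by GFP to DsRed ratio, PSI derived from sequencing read proportions per bin multiplied by bin number.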

In one data set the parent is B1. Briefly: protein stability index of a GFP-peptide fusion (GPS, HEK-293T) (PSI 1-6); higher = more stable. The conditions noted are these: c terminus: a fixed tail appended.
As to EENRERIGEEVRQLMEKLREKQLS [M4R], the protein stability index is 4.75.

As for EENGERIGEEVRQLMEKLREKQLS [M4G], the protein stability index turned out to be 5.48.

In the case of EENPERIGEEVRQLMEKLREKQLS [M4P], the protein stability index came to 5.96.

Regarding EENLERIGEEVRQLMEKLREKQLS [M4L], the protein stability index worked out at 4.16.

With EENIERIGEEVRQLMEKLREKQLS [M4I], the protein stability index worked out at 4.28.

EENDERIGEEVRQLMEKLREKQLS [M4D]: the protein stability index amounted to 4.81.

Consider EENHERIGEEVRQLMEKLREKQLS [M4H], for which the protein stability index came out at 5.09.

On to EENEERIGEEVRQLMEKLREKQLS [M4E], for which the protein stability index is 5.3.

Consider EENKERIGEEVRQLMEKLREKQLS [M4K], for which the protein stability index was found to be 5.35.

As to EENQERIGEEVRQLMEKLREKQLS [M4Q], the protein stability index was found to be 3.58.

As for ESNMERIGEEVRQLMEKLREKQLS [E2S], the protein stability index was 4.23.

EKNMERIGEEVRQLMEKLREKQLS [E2K]: the protein stability index was 3.64.

In the case of EINMERIGEEVRQLMEKLREKQLS [E2I], the protein stability index is 4.

For the variant EMNMERIGEEVRQLMEKLREKQLS [E2M], the protein stability index was determined as 4.05.

As to EQNMERIGEEVRQLMEKLREKQLS [E2Q], the protein stability index was determined as 4.2.

Take EPNMERIGEEVRQLMEKLREKQLS [E2P]: the protein stability index is 4.34.

With EYNMERIGEEVRQLMEKLREKQLS [E2Y], the protein stability index came out at 3.72.

As for ECNMERIGEEVRQLMEKLREKQLS [E2C], the protein stability index is 4.07.

With EANMERIGEEVRQLMEKLREKQLS [E2A], the protein stability index amounted to 2.97.

Take ERNMERIGEEVRQLMEKLREKQLS [E2R]: the protein stability index worked out at 4.55.

On to EWNMERIGEEVRQLMEKLREKQLS [E2W], for which the protein stability index came to 4.53.

Consider EDNMERIGEEVRQLMEKLREKQLS [E2D], for which the protein stability index came to 4.48.

On to EHNMERIGEEVRQLMEKLREKQLS [E2H], for which the protein stability index was found to be 4.37.

EFNMERIGEEVRQLMEKLREKQLS [E2F]: the protein stability index worked out at 4.46.

For EERMERIGEEVRQLMEKLREKQLS [N3R], the protein stability index turned out to be 3.79.

On to EEPMERIGEEVRQLMEKLREKQLS [N3P], for which the protein stability index came out at 4.71.

On to EEGMERIGEEVRQLMEKLREKQLS [N3G], for which the protein stability index amounted to 5.04.

For the variant EEDMERIGEEVRQLMEKLREKQLS [N3D], the protein stability index is 3.5.

Regarding EEAMERIGEEVRQLMEKLREKQLS [N3A], the protein stability index was found to be 3.99.

In the case of EEQMERIGEEVRQLMEKLREKQLS [N3Q], the protein stability index amounted to 3.94.

Turning to EEFMERIGEEVRQLMEKLREKQLS [N3F], the protein stability index was 4.74.

As for EEWMERIGEEVRQLMEKLREKQLS [N3W], the protein stability index is 4.32.

Regarding EECMERIGEEVRQLMEKLREKQLS [N3C], the protein stability index came to 3.89.

For EETMERIGEEVRQLMEKLREKQLS [N3T], the protein stability index stood at 3.84.

As for YENMERIGEEVRQLMEKLREKQLS [E1Y], the protein stability index is 4.14.

For the variant SENMERIGEEVRQLMEKLREKQLS [E1S], the protein stability index came out at 4.

Consider IENMERIGEEVRQLMEKLREKQLS [E1I], for which the protein stability index was found to be 4.77.

Take TENMERIGEEVRQLMEKLREKQLS [E1T]: the protein stability index was determined as 4.56.

For LENMERIGEEVRQLMEKLREKQLS [E1L], the protein stability index worked out at 3.54.

On to CENMERIGEEVRQLMEKLREKQLS [E1C], for which the protein stability index is 4.29.

Regarding FENMERIGEEVRQLMEKLREKQLS [E1F], the protein stability index was determined as 4.32.

With NENMERIGEEVRQLMEKLREKQLS [E1N], the protein stability index came out at 4.31.

On to KENMERIGEEVRQLMEKLREKQLS [E1K], for which the protein stability index amounted to 3.81.

Take RENMERIGEEVRQLMEKLREKQLS [E1R]: the protein stability index stood at 3.55.

For the variant DENMERIGEEVRQLMEKLREKQLS [E1D], the protein stability index came to 2.37.

Take QENMERIGEEVRQLMEKLREKQLS [E1Q]: the protein stability index came to 4.41.

Another data set covers variants of B2. Described as above. The conditions noted are these: c terminus: a fixed tail appended.
Turning to TVPEILVHNIVIFMRTHVKISYIG [S17H], the protein stability index was found to be 2.76.

As for TVPEILVHNIVIFMRTQVKISYIG [S17Q], the protein stability index was determined as 3.81.

With TVPEILVHNIVIFMRTTVKISYIG [S17T], the protein stability index stood at 3.17.

For the variant TVPEILVHNIVIFMRTGVKISYIG [S17G], the protein stability index stood at 2.1.

Turning to TVPEILVHNIVIFMRTMVKISYIG [S17M], the protein stability index stood at 2.69.

As for TVPEILVHNIVIFMRTDVKISYIG [S17D], the protein stability index came out at 2.48.

For the variant TVPEILVHNIVIFMRTNVKISYIG [S17N], the protein stability index worked out at 3.88.

For TVPEILVHNIVIFMRTCVKISYIG [S17C], the protein stability index came to 3.88.

Consider TVPEILVHNIVIFMRTRVKISYIG [S17R], for which the protein stability index came out at 3.66.

Consider TVPEILVHNIVIFMRTAVKISYIG [S17A], for which the protein stability index was found to be 4.19.

Turning to TVPEILVHNIVIFMRTIVKISYIG [S17I], the protein stability index is 2.2.

Consider TVPEILVHNIVIFMRTWVKISYIG [S17W], for which the protein stability index came to 3.7.

Regarding TVPEILVHNIVIFMRTFVKISYIG [S17F], the protein stability index came to 4.33.

Regarding TVPEILVHNIVIFMRTKVKISYIG [S17K], the protein stability index came to 4.27.

On to TVPEILVHNIVIFMRTYVKISYIG [S17Y], for which the protein stability index turned out to be 3.

On to TVPEILVHNIVIFMRTLVKISYIG [S17L], for which the protein stability index came to 2.29.

Take TVPEILVHNIVIFMRTEVKISYIG [S17E]: the protein stability index worked out at 3.3.

With TVPEILVHNIVIFMRTSVKIDYIG [S21D], the protein stability index is 2.53.

TVPEILVHNIVIFMRTSVKICYIG [S21C]: the protein stability index worked out at 2.77.

As for TVPEILVHNIVIFMRTSVKIHYIG [S21H], the protein stability index came to 2.81.

For TVPEILVHNIVIFMRTSVKITYIG [S21T], the protein stability index was found to be 3.42.

TVPEILVHNIVIFMRTSVKIMYIG [S21M]: the protein stability index was 3.51.

For TVPEILVHNIVIFMRTSVKIWYIG [S21W], the protein stability index worked out at 1.95.

In the case of TVPEILVHNIVIFMRTSVKIKYIG [S21K], the protein stability index was 2.53.

Take TVPEILVHNIVIFMRTSVKILYIG [S21L]: the protein stability index is 3.4.

TVPEILVHNIVIFMRTSVKIQYIG [S21Q]: the protein stability index worked out at 2.04.

Consider TVPEILVHNIVIFMRTSVKIEYIG [S21E], for which the protein stability index was found to be 3.24.

As to TVPEILVHNIVIFMRTSVKIIYIG [S21I], the protein stability index turned out to be 3.51.

For the variant TVPEILVHNIVIFMRTSVKIGYIG [S21G], the protein stability index turned out to be 1.99.

For TVPEILVHNIVIFMRTSVKIFYIG [S21F], the protein stability index came out at 3.13.

For TVPEILVHNIVIFMRTSVKISRIG [Y22R], the protein stability index worked out at 3.04.

For TVPEILVHNIVIFMRTSVKISPIG [Y22P], the protein stability index was found to be 3.

Turning to TVPEILVHNIVIFMRTSVKISTIG [Y22T], the protein stability index was 2.84.

Take TVPEILVHNIVIFMRTSVKISQIG [Y22Q]: the protein stability index was 3.85.

TVPEILVHNIVIFMRTSVKISNIG [Y22N]: the protein stability index amounted to 3.33.

Consider TVPEILVHNIVIFMRTSVKISAIG [Y22A], for which the protein stability index amounted to 3.58.

With TVPEILVHNIVIFMRTSVKISGIG [Y22G], the protein stability index came out at 2.47.

Take TVPEILVHNIVIFMRTSVKISIIG [Y22I]: the protein stability index is 4.35.

For TVPEILVHNIVIFMRTSVKISHIG [Y22H], the protein stability index is 2.67.

For TVPEILVHNIVIFMRTSVKISLIG [Y22L], the protein stability index is 2.73.

Take TVPEILVHNIVIFMRTSVKISFIG [Y22F]: the protein stability index amounted to 2.35.

On to TVPEILVHNIVIFMRTSVKISKIG [Y22K], for which the protein stability index came to 2.86.

With TVPEILVHNIVIFMRTSVKISDIG [Y22D], the protein stability index worked out at 2.46.

TVPEILVHNIVIFMRTSVKISWIG [Y22W]: the protein stability index worked out at 2.65.

As to TVPEILVHNIVIFMRTSVKISMIG [Y22M], the protein stability index turned out to be 3.99.

In the case of TVPEILVHNIVIFMRTSVKISCIG [Y22C], the protein stability index worked out at 2.5.

Turning to TVPEILVHNIVIFMRTSVKISVIG [Y22V], the protein stability index came to 4.14.

Take TVPEILVHNIVIFMRTSVKISSIG [Y22S]: the protein stability index stood at 2.31.
